Key:
[1] = test system: purified S. suis peptidoglycan; assay: PlySs2 bond specificity, mass spectroscopy of digest; format: biochemical, Streptococcus suis; conditions: overnight at 37° C.
Description: Investigations to determine the bond catalyzed by PlySs2 lysin have been undertaken. PlySs2 was incubated with purified S. suis peptidoglycan stripped of lipotechoic acid and carbohydrates overnight at 37° C. and the product submitted for mass spectroscopy.

[2] = test system: cultures from the oral cavities of rats; assay: Oral cavity microbiota study, clearing zones on lawns; format: cell-based; conditions: 6 cultures, 10 μL drops on BHI agar; the cleared culture confirmed as S. aureus
[3] = test system: methicillin resistant Staphylococcus aureus strains (MRSA); assay: PlySs2 in vitro growth reduction and killing; format: cell-based
Description: (§1) Readings (OD600) were taken for each well in a spectrophotometer every minute over an hour. The OD density indicates the amount of bacterial cell growth in the microtiter well.
(§2) This activity test was first determined for the pathogenic S. suis strain 7997 with various concentrations of PlySs2 (FIG. 15A). Specific activity of purified PlySs2 lysin was also assessed in vitro against S. suis strain S735 (FIG. 15B). […] Additional results are tabulated below in TABLE 1.

S. suis strain 7997 [4] = assay: PlySs2 storage stability, killing effectiveness; format: physicochemical, Streptococcus suis
Description: FIG. 9. The stability of purified PlySS2 was determined by evaluating killing effectiveness against strain 7997 after storage at 37° C. for up to 48 hours in buffer.
FIG. 10. Killing effectiveness, assessed by OD600 growth of strain 7997 upon treatment with PlySs2 lysin after lysin storage at −80° C. for up to 7 months in buffer.
The stability of purified PlySs2 lysin was determined upon maintenance at 37° C. for up to 48 hours in buffer. The PlySs2 lysin is >90% stable up to 24 hours and maintains at least 50% activity after 48 hours.
Stability of the PlySS2 lysin was evaluated on freezer storage at −80° C. The PlySs2 lysin retains essentially 100% activity on storage in buffer for up to at least 7 months at −80° C. (FIG. 10).

S. suis strain 7997 [5] = assay: PlySs2 biochemical characterization, OD600 turbidity
[6] = test system: vancomycin intermediate sensitivity Staphylococcus aureus (VISA); assay: PlySs2 in vitro test, standard MIC analysis; format: cell-based; conditions: comparable in vitro tests (FIG. 18)
Description: (§3) FIG. 18. PlySS2 was tested by standard MIC analysis for its ability to kill strains of staphylococci. Included in the testing were resistant staphylococci such as Vancomycin resistant (VRSA), Vancomycin intermediate (VISA) and methicillin resistant (MRSA) staphylococci. The three VRSA strains tested represent half of all known isolates.

[7] = test system: vancomycin resistant Staphylococcus aureus (VRSA); assay: PlySs2 in vitro test, standard MIC analysis; format: cell-based; conditions: comparable in vitro tests (FIG. 18)
Description: as §3

S. suis strain 7997 [8] = assay: PlySs2 lytic activity at various concentrations, OD600; format: cell-based, Streptococcus suis
Description: FIGS. 15A and 15B (A) PlySs2 has acute lytic activity against S. suis strain 7997 at, or above 8 ug/mL. (B) Activity of PlySs2 assessed in vitro against S. suis strain 5735.
as §1, §2

S. aureus MW2 and 8325 = assay: Assessment of resistance, incrementally increasing concentrations; format: cell-based; conditions: concentration doubled daily up to 4× MIC over an 8-day period

B1: PlySs2: S. suis prophage lysin from strain 89/1591, amino acid sequence SEQ ID NO:3 (protein, listed as Streptococcus suis)
chain: MTTVNEALNNVRAQVGSGVSVGNGECYALASWYERMISPDATVGLGAGVGWVSGAIGDTISAKNIGSSYNWQANGWTVSTSGPFKAGQIVTLGATPGNPYGHVVIVEAVDGDRLTILEQNYGGKRYPVRNYYSAASYRQQVVHYITPPGTVAQSAPNLAGSRSYRETGTMTVTVDALNVRRAPNTSGEIVAVYKRGESFDYDTVIIDVNGYVWVSYIGGSGKRNYVATGATKDGKRFGNAWGTFK
bond catalyzed (cleavage type) [1]: N-acetylmuramoyl,-L-alanine amidase | clearing zone around PlySs2 drops on lawns of rat oral cavity cultures [2]: only appeared on one culture | activity against MRSA strains [3]: reduction in growth and killing | activity maintained (S. suis strain 7997 [4]; 37° C. in buffer, after 48 hours): at least 50% | stability of purified lysin (S. suis strain 7997 [4]; 37° C. in buffer, up to 24 hours): > 90% | activity retained on freezer storage (S. suis strain 7997 [4]; −80° C. in buffer, up to at least 7 months): ~100% | NaCl concentration of greatest activity (S. suis strain 7997 [5]; S. suis strain 7997): 0 mM | pH up to which acute activity is shown (S. suis strain 7997 [5]; S. suis strain 7997, Bis-tris propane (BTP) buffer): ≤ 9.7 | pH of strongest activity (optimal pH) (S. suis strain 7997 [5]; S. suis strain 7997, phosphate/citrate buffer): 8.0 | effectiveness against VISA strains [6]: similarly effective | effectiveness against VRSA strains [7]: similarly effective | concentration with acute lytic activity (S. suis strain 7997 [8]): ≥ 8 µg/mL | development of resistance (4-fold increase in MIC) (S. aureus MW2 and 8325): Neither S. aureus strain developed resistance
